The text below walks through data of PMC8630071, “The NUCKS1-SKP2-p21/p27 axis controls S phase entry”.

Series [1] deals with T1, NUCKS1, dephosphorylated (UniProt Q9H1E3 1-243).
T1 sequence: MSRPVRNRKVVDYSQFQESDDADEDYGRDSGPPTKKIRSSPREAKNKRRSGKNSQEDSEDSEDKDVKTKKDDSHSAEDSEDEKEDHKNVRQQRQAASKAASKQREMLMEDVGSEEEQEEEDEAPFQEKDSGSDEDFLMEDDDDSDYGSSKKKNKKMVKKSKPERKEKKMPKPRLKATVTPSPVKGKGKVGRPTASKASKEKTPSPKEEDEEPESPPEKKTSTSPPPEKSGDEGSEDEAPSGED
Description: EMSA; lambda phosphatase treated; 10.24-2500 nM protein, 25 nM probe; text: almost 10-fold; 20 mM Tris-HCl pH 7.5, 100 mM KCl, 0.2% NP-40, 20% glycerol, 2 mM DTT, 50 ng (pure protein) or 1 ug (extract) salmon sperm DNA, 25 nM probe, 15 min at 37 C; native 6% PAGE. The following applies: protein: recombinant; tags: His6; label: IRDye-800; blunt. For orientation: Mobility shift assays separate free from complexed probe on a gel.

The target of series [2] is T1, NUCKS1, dephosphorylated. Description: competition EMSA; 100x unlabelled competitor against labelled WT probe; not outcompeted; 20 mM Tris-HCl pH 7.5, 100 mM KCl, 0.2% NP-40, 20% glycerol, 2 mM DTT, 50 ng (pure protein) or 1 ug (extract) salmon sperm DNA, 25 nM probe, 15 min at 37 C; native 6% PAGE. As to conditions: protein: recombinant; tags: His6; blunt.

Where a chain is given by its changes, count along the chain named.

B1: SKP2 promoter WT probe (dsDNA)
DNA 1: GCCGACCAGTCCCGCTCCCGCGGGGGGTTGTGGGTATCTCGAAGGCGGGTAAAGCTGCA
DNA 2: TGCAGCTTTACCCGCCTTCGAGATACCCACAACCCCCCGCGGGAGCGGGACTGGTCGGC
With B1, the binding signal in series [1] was ~10 fold higher affinity than phosphorylated NUCKS1.

B2: SKP2 promoter mutant probe (no GC-box), unlabelled competitor (dsDNA)
DNA 1: B1 DNA 1 with G44A, G45A, C46A, G47A, G48A, G49A
DNA 2: B1 DNA 2 with C11T, C12T, C13T, G14T, C15T, C16T
For B2, the binding result in series [2] is given as “no binding”.
